Patent US20250230255A1 (BIOTHEUS, published 2025)
Read-outs that look alike come from different tables or passages of the source. One block for each binder: values may come before it.

Legend:
human CD39 on cells [1] = biological target: T1, human CD39 on cells (human, UniProt P49961 1-510); test: cell-based or functional assay
T1 sequence: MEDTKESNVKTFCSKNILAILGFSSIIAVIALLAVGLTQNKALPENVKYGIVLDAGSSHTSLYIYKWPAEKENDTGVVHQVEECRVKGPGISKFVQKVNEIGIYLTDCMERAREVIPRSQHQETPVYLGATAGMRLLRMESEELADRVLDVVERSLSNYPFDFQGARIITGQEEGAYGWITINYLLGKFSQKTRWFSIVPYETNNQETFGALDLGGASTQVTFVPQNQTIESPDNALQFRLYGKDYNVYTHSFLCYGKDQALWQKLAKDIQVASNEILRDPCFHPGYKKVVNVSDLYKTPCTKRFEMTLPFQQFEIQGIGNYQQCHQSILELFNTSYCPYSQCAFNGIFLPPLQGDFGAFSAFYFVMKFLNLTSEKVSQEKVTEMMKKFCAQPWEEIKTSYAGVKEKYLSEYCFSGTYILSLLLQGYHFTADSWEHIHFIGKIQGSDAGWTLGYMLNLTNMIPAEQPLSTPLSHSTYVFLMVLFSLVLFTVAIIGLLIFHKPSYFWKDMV

[2] = biological target: T2, human CD39 (recombinant protein in solution) (human, UniProt P49961 38-478, limits assumed); test: cell-based or functional assay
T2 sequence: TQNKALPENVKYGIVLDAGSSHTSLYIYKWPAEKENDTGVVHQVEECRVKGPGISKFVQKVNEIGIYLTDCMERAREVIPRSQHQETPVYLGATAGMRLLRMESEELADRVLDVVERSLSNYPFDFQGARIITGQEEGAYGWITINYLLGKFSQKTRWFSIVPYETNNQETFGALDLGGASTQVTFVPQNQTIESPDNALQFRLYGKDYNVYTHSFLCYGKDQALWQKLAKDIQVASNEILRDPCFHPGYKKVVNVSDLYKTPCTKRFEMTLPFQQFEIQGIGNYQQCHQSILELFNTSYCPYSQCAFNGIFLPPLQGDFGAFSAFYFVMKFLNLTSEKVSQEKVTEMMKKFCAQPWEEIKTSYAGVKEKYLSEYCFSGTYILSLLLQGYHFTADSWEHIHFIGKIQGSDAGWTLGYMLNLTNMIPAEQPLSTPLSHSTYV

human CD39 on cells [3] = biological target: T1, human CD39 on cells; test: cell-based or functional assay; remark: listed apart in the source
[4] = biological target: T2, human CD39 (recombinant protein in …); test: BLI (ForteBio), method of Example 3, human CD39 in solution
Protocol: (§1) ForteBio affinity test was conducted according to the existing methods (Estep, P et al., High throughput solution based measurement of antibody-antigen affinity and affinity binding. MAbs, 2013.5 (2): p. 270-8). In short, the sensor is balanced offline in the analysis buffer for 30 min, and then tested online for 60 s to establish baseline. After that, the AHQ sensor is online loaded with the above-obtained purified antibody, and put into 100 nM human CD39 (SEQ ID NO: 28) for 5 min, and then transferred the sensor to PBS for dissociation for 5 min. A 1:1 binding model is used for the dynamic analysis.
The humanized sequences are subjected to the humanized antibody vector construction, expression and purification according to the method described in Example 2. […] The purified humanized antibodies were subjected to the affinity test at protein level according to the method described in Example 3.

human CD39 on cells [5] = biological target: T1, human CD39 on cells; test: cell-based or functional assay; remark: listed apart in the source
[6] = biological target: T2, human CD39 (recombinant protein in …); test: cell-based or functional assay; remark: listed apart in the source
human CD39 on cells [7] = biological target: T1, human CD39 on cells; test: flow cytometry on CHO-hCD39 cells, MFI titration
human CD39 on cells [8] = biological target: T1, human CD39 on cells; test: cell-based or functional assay; remark: listed apart in the source
cynomolgus CD39 on cells = biological target: T3, cynomolgus CD39 on cells (cynomolgus, UniProt P49961 6-510 (human entry)); test: flow cytometry on CHO-cyCD39 cells, MFI titration
T3 construct: also called cyCD39; CHO-cyCD39 cells
T3 chain: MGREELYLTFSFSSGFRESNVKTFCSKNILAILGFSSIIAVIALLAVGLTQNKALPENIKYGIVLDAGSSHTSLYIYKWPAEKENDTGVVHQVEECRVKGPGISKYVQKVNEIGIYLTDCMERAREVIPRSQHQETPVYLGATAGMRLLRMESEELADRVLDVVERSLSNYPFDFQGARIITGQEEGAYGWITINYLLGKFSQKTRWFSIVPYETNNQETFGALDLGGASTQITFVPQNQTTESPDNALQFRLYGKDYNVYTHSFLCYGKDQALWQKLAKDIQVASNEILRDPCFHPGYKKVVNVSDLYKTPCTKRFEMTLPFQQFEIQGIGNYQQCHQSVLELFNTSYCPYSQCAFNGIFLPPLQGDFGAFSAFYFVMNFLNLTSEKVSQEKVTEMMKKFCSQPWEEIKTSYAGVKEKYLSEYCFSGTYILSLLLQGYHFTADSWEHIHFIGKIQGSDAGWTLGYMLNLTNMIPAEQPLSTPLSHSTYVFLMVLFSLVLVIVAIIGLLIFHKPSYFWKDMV

[9] = biological target: T2, human CD39 (recombinant protein in …); test: BLI (ForteBio), antibody loaded on AHQ sensor, 100 nM human CD39 in solution, 1:1 model
Protocol: as §1

cynomolgus PD-1 on cells = biological target: T4, cynomolgus PD-1 on cells (cynomolgus, UniProt Q15116 25-288 (human entry)); test: flow cytometry on CHOS cells overexpressing cynomolgus PD1, median fluorescence intensity PE-A
T4 construct: also called CHO-cynoPD1 cell
T4 chain: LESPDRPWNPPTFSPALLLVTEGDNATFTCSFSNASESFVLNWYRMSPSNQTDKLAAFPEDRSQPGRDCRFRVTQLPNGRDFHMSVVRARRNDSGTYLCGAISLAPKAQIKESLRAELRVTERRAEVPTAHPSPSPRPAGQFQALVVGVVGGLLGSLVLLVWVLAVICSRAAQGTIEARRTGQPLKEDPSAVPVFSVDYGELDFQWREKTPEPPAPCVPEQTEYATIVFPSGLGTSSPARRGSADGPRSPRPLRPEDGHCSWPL

human PD-1 on cells = biological target: T5, human PD-1 on cells (human, UniProt Q15116 25-288); test: flow cytometry on CHOS cells overexpressing human PD1, median fluorescence intensity PE-A
T5 construct: also called CHO-hPD1 cell
T5 sequence (Q15116 25-288 limits assumed): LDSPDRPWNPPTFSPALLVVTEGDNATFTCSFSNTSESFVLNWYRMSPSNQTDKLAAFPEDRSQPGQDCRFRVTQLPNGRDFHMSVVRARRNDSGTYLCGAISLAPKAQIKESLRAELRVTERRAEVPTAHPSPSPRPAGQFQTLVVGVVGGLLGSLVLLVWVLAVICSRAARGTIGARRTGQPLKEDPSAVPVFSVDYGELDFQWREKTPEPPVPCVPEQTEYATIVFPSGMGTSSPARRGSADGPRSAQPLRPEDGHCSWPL

[10] = biological target: PD-1 (of the Promega PD-1/PD-L1 blockade bioassay) (UniProt Q15116 25-288, limits assumed); test: cell-based or functional assay
PD-1 (of the Promega PD-1/PD-L1 blockade bioassay), sequence (Q15116 25-288 limits assumed): as above

[11] = biological target: T2, human CD39 (recombinant protein in …); test: BLI (ForteBio), method of Example 3, human CD39 in solution; remark: listed apart in the source
Protocol: as §1

EC50 (read off the curve) (cynomolgus PD-1 on cells): ~20 nM
EC50 (read off the curve) (human PD-1 on cells): ~10 nM
EC50 (read off the curve) [10]: ~0.3 nM
B2: anti-PD1×CD39 antibody (bispecific antibody, human IgG1, kappa)
heavy: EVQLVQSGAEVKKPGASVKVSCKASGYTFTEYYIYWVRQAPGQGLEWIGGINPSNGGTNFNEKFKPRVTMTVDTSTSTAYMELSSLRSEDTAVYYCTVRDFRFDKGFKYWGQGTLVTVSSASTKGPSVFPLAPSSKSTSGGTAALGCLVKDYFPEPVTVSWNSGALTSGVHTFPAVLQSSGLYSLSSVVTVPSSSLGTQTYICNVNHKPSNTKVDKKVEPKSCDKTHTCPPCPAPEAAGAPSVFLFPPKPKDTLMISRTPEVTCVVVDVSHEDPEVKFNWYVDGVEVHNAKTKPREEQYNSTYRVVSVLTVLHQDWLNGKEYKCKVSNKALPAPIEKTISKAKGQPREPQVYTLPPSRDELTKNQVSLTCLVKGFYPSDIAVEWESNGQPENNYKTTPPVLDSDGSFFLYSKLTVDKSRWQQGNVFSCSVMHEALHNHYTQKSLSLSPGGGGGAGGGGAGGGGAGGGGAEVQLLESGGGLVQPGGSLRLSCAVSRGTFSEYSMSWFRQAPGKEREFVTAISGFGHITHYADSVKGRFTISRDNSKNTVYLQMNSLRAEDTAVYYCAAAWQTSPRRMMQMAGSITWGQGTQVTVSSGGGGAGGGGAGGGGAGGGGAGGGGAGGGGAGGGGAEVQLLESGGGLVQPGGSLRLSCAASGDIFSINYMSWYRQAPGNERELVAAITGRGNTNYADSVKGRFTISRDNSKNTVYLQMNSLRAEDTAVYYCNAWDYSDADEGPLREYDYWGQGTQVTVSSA
light: DIVLTQSPATLSLSPGERATLSCRASKSVSTSGLNYVHWYQRKPGQAPRLLIYLGSYLDSGVPARFSGSGSGTDFTLTISSLEPEDFAVYYCQQSWELPLTFGGGTKVEIKRTVAAPSVFIFPPSDEQLKSGTASVVCLLNNFYPREAKVQWKVDNALQSGNSQESVTEQDSKDSTYSLSSTLTLSKADYEKHKVYACEVTHQGLSSPVTKSFNRGEC
notes: also called Anti-PD1xCD39 antibody

EC50 (read off the curve) (cynomolgus PD-1 on cells): ~10 nM
EC50 (read off the curve) (human PD-1 on cells): ~10 nM
EC50 (read off the curve) [10]: ~0.2 nM
B3: anti-PD1 antibody ADI-54872 (antibody, V domains shown)
VH: EVQLVQSGAEVKKPGASVKVSCKASGYTFTEYYIYWVRQAPGQGLEWIGGINPSNGGTNFNEKFKPRVTMTVDTSTSTAYMELSSLRSEDTAVYYCTVRDFRFDKGFKYWGQGTLVTVSS
VL: DIVLTQSPATLSLSPGERATLSCRASKSVSTSGLNYVHWYQRKPGQAPRLLIYLGSYLDSGVPARFSGSGSGTDFTLTISSLEPEDFAVYYCQQSWELPLTFGGGTKVEIK
notes: also called anti-PD-1 monoclonal antibody molecule

The remaining lines, values behind:

B1: I394 BMK (antibody, human IgG1, kappa, V domains shown)
VH: EVQLQQSGPELVKPGASVKMSCKASGYTFTDYNMHWVKQSHGRTLEWIGYIVPLNGGSTFNQKFKGRATLTVNTSSRTAYMELRSLTSEDSAAYYCARGGTRFAYWGQGTLVTVSA
VL: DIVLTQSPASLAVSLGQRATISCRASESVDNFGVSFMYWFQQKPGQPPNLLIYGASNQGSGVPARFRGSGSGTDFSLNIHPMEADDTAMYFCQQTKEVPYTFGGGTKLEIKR
notes: also called control antibody
EC50 of blocking CD39 enzyme activity in human CD39 overexpression cells (ATP, CellTiter-Glo) (human CD39 on cells [1]): 10.1 nM
EC50 of blocking enzyme activity of soluble CD39 [2]: 3.09 nM
EC50 of blocking CD39 enzyme activity in PBMC system (human CD39 on cells [3]): 0.338 nM
Kd [4]: 1.5 nM
koff [4]: 0.000371 s⁻¹
kon [4]: 245000 M⁻¹ s⁻¹
EC50 of blocking CD39 enzyme activity of human CD39 overexpression cells (human CD39 on cells [5]): 1.99 nM
EC50 of blocking enzyme activity of soluble human CD39 [6]: 8.89 nM
EC50 (human CD39 on cells [7]): 4.76 nM
EC50 of blocking CD39 enzyme activity in PBMC system (human CD39 on cells [8]): 10.1 nM
EC50 (cynomolgus CD39 on cells): 5.53 nM
Kd [9]: 0.855 nM
koff [9]: 0.0002 s⁻¹
kon [9]: 285000 M⁻¹ s⁻¹

B4: Bi307/308 (bispecific antibody, human IgG1, kappa, L234A L235A)
heavy: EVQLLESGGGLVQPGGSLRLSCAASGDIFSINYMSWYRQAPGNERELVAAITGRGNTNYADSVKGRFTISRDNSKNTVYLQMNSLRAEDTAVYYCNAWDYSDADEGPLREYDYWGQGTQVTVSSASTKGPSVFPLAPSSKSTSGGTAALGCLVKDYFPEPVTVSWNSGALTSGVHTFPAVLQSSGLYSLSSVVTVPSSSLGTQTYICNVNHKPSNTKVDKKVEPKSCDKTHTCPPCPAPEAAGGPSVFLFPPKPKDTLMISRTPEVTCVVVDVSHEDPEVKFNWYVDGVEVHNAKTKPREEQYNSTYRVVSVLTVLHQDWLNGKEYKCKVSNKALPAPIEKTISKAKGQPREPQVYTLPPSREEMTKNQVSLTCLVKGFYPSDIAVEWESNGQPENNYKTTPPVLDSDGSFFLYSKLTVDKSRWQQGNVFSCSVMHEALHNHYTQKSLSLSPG
light: EVQLLESGGGLVQPGGSLRLSCAVSRGTFSEYSMSWFRQAPGKEREFVTAISGFGHITHYADSVKGRFTISRDNSKNTVYLQMNSLRAEDTAVYYCAAAWQTSPRRMMQMAGSITWGQGTQVTVSSRTVAAPSVFIFPPSDEQLKSGTASVVCLLNNFYPREAKVQWKVDNALQSGNSQESVTEQDSKDSTYSLSSTLTLSKADYEKHKVYACEVTHQGLSSPVTKSFNRGEC
notes: also called bi-epitopic anti-CD39 antibody resembling IgG structure
Kd [11]: 0.351 nM
koff [11]: 0.000106 s⁻¹
kon [11]: 303000 M⁻¹ s⁻¹
